Assay results as given in patent publication US20240254222A1 (Bayer, published 2024).

T1: Human Semaphorin3A-Sema Domain, TPP-19068 (human, UniProt Q14563 21-569)
T1 construct: produced inhouse in HEK293-6E; also called human monovalent Sema3A domain
T1 sequence: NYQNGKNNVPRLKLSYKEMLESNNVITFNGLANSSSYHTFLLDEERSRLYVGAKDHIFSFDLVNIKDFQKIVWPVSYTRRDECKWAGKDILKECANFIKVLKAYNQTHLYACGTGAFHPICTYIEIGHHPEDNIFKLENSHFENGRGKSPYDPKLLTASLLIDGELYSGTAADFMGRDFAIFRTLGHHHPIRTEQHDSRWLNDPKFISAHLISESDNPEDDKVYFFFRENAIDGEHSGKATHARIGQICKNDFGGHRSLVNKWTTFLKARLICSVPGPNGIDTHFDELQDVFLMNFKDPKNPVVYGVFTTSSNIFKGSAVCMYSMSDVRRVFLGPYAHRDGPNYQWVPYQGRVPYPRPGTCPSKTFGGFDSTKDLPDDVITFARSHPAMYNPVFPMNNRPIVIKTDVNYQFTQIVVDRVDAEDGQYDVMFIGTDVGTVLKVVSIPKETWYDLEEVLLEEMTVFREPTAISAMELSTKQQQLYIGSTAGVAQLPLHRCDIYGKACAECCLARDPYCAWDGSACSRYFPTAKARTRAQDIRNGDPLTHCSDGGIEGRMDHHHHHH

T2: Mouse Semaphorin3A-Sema Domain, TPP-19069 (mouse, UniProt O08665 21-569)
T2 construct: produced inhouse
T2 sequence: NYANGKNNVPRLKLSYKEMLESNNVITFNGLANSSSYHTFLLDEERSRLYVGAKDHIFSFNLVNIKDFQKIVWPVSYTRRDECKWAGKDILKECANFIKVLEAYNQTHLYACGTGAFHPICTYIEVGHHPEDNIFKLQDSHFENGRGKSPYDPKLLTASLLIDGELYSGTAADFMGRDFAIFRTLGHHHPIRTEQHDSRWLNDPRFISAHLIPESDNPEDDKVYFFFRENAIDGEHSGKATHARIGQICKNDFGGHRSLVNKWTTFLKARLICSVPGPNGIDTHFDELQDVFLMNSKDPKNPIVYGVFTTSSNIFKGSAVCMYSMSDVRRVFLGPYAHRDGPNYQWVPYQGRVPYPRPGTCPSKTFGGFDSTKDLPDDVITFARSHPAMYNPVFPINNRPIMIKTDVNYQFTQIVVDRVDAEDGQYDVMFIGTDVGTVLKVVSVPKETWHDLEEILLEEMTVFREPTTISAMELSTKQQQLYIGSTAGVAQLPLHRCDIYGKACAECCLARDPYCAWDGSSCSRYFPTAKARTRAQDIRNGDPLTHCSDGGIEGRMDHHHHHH

T3: Dog Semaphorin3A-Sema Domain, TPP-19121 (dog, UniProt Q63548 21-569 (rat entry), limits assumed)
T3 construct: produced inhouse
T3 chain: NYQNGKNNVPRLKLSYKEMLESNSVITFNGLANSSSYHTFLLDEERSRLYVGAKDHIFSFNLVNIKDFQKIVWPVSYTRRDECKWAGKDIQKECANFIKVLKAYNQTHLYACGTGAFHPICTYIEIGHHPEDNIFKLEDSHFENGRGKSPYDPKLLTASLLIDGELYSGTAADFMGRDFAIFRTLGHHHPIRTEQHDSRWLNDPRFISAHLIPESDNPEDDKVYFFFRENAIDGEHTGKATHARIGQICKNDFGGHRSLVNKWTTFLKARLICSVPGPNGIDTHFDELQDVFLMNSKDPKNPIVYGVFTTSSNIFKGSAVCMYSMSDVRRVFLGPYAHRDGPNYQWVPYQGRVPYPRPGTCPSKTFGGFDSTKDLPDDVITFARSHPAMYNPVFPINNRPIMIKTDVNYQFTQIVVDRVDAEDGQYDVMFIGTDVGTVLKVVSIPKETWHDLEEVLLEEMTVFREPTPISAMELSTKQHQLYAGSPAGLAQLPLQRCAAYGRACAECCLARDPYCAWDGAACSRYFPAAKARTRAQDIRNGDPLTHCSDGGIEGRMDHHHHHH

T4: Cyno Semaphorin3A-Sema Domain, TPP-19122 (cynomolgus (Macaca fascicularis), UniProt Q63548 21-569 (rat entry), limits assumed)
T4 construct: produced inhouse
T4 chain: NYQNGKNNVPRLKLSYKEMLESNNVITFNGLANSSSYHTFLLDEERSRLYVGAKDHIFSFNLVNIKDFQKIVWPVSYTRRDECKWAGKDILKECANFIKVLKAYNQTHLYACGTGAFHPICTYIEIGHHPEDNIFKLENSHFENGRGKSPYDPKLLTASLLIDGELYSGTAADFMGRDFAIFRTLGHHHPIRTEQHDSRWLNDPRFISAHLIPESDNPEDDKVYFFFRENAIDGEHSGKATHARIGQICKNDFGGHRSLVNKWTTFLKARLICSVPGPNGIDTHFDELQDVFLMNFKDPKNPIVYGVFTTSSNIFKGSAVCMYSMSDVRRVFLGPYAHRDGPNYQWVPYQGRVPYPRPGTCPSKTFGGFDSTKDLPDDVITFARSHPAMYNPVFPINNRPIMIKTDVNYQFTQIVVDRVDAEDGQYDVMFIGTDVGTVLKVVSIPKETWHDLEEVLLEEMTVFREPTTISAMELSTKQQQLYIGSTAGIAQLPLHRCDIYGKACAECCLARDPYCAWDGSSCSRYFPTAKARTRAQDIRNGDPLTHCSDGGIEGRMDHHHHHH


Experiments:
Assay in all cases: SPR, captured antibody, Sema3A domain analyte
[1] = target: T1, Human Semaphorin3A-Sema Domain, …
Experimental: (§1) To assess the binding activity of anti-Sema3A antibodies binding assays were conducted using surface plasmon resonance (SPR). Binding assays were performed on a Biacore T200 instrument (Cytiva) at 25° C. using assay buffer HBS P+, 300 mM NaCl, 0.75 mM CaCl₂, 2.5 mM MgCl₂, 1 mg/ml BSA, 0.05% NaN₃. Antibodies were captured via anti-human Fc IgGs (“Human antibody capture kit”, Order No. BR100839, Cytiva) covalently amine coupled to a Series S CM5 sensor chip (Cytiva). The amine coupling was carried out according to the manufacturer's instructions using 1-ethyl-3-(3-dimethylaminopropyl) carbodiimide hydrochloride (EDC), N-hydroxysuccinimide (NHS) and ethanolamine HCl, pH 8.5 (“Amine Coupling Kit” BR-1000-50, Cytiva.). Human, mouse, cynomolgus, rat, dog and pig monovalent Sema3A domain were used as analytes in a concentration series from 0.024-3.125 nM in multi cycle kinetics mode. The sensor surface was regenerated with glycine pH 2.0 after each antigen injection. Obtained sensorgrams were double referenced (subtraction of reference flow cell signal and buffer injection) and were fitted to a 1:1 Langmuir binding model using the Biacore T200 Evaluation software obtaining the experimental fitted RMax value. To calculate the binding activity first the theoretical RMax needs to be calculated according to equation 1: […]
(§2) Binding activity was determined by dividing the experimental determined RMax by the theoretical calculated RMax according to equation 2: […]

[2] = target: T2, Mouse Semaphorin3A-Sema Domain, …
Experimental: as §1, §2

[3] = target: T3, Dog Semaphorin3A-Sema Domain, TPP-19121
Experimental: as §1, §2

[4] = target: T4, Cyno Semaphorin3A-Sema Domain, TPP-19122
Experimental: as §1, §2

Binder | Binding Activity [%] [1] | Binding Activity [%] [2] | Binding Activity [%] [3] | Binding Activity [%] [4]
TPP-15370 (antibody, human IgG1, lambda, V domains shown, human IgG1; also called IgG1, hit from panning; parental mAb) VH: EVQLLESGGGLVQPGGSLRLSCAASGFTFSSYGMHWVRQAPGKGLEWVSAIGTGGDTYYADSVMGRFTISRDNSKNTLYLQMNSLRAEDTAVYYCARRDDYTSRDAFDVWGQGTLVTVSS VL: not shown | 112% | 11% | 114% | 139%
TPP-11489 (antibody, human IgG1, lambda, human IgG1; also called Chiome; Chiome Prior Art (hIgG1)) heavy: not shown light: SYELTQPPSVSVSPGQTARITCSGGGSYTGSYYYGWYQQKPGQAPVTVIYYNNKRPSDIPERFSGSLSGTTNTLTISGVQAEDEADYYCGSADNSGDAFGTGTKVTVLGQPKAAPSVTLFPPSSEELQANKATLVCLISDFYPGAVTVAWKADSSPVKAGVETTTPSKQSNNKYAASSYLSLTPEQWKSHRSYSCQVTHEGSTVEKTVAPTECS | 38% | 118% | 22% | 13%
TPP-30788 (antibody, human IgG1, kappa, V domains shown, prior art, WO 2020/225400; also called BI clone I; Böhringer (BI) Clone I) VH: EVQLVESGGGLVQPGGSLRLSCAASGFTFSSYYMSWVRQAPGKGLEWVSTIIKSGGYAYYPDSVKDRFTISRDNSKNTLYLQMSSLRAEDTAVYYCVRGGQGAMDYWGQGTTVTVSS VL: EIVLTQSPATLSLSPGERATLSCRASQSIGDYLHWYQQKPGQAPRLLIKYASQSISGIPARFSGSGSGTDFTLTITSLEPEDFAVYYCQQGYSFPYTFGGGTKLEIKR | 107% | 108% | 106% | 107%
TPP-15374 (antibody, human IgG1, lambda, V domains shown, human IgG1; also called IgG1, hit from panning; parental mAb) VH: EVQLLESGGGLVQPGGSLRLSCAASGFTFSSYEMNWVRQAPGKGLEWVSGISWNSGSIGYADSVKGRFTISRDNSKNTLYLQMNSLRAEDTAVYYCARSGYSSSWFDPDFDYWGQGTLVTVSS VL: QSVLTQPPSASGTPGQRVTISCTGSSSNIGAGYDVHWYQQLPGTAPKLLIYGNSNRPSGVPDRFSGSKSGTSASLAISGLRSEDEADYYCSSYAGSNPYVVFGGGTKLTVLG | 10% | 106% | 98% | 104%

Further lines, results first:

Binding Activity [%] [1] | Binding Activity [%] [2] | Binding Activity [%] [3] | Binding Activity [%] [4] | Binder
107% | 108% | 107% | 106% | TPP-23298 (antibody, human IgG4 S228P, lambda, V domains shown) VH: EVQLLESGGGLVQPGGSLRLSCAASGFTFYSYAMSWVRQAPGKGLEWVSAIGTGGDTYYADSVKGRFTISRDNSKNTLYLQMNSLRAEDTAVYYCARRDDYTSRDAFDYWGQGTLVTVSS VL: not shown
107% | 107% | 106% | 107% | TPP-30791 (antibody, human IgG1, kappa, V domains shown, prior art, WO 2020/225400; also called BI clone IV; Böhringer (BI) Clone IV) VH: EVQLVESGGGLLQLGGSLRLSCAASGFTFSSYYMSWVRQAPGKGLEWVSTIIKSGGYAYYPDSVKDRFTISRDNSKNTLNLQMNSLRAEDTAVYYCVKGGQGAMDYWGQGTTVTVSS VL: EIVLTQSPATLSLSPGERATLSCRASQSIGDYLHWYQQKPGQAPRLLIKYASQSISGIPARFSGSGSGTDFTLTISSLEPEDFAVYYCQQGYSFPYTFGGGTKLEIKR
93% | 93% | 92% | 92% | TPP-30790 (antibody, human IgG1, kappa, V domains shown, prior art, WO 2020/225400; also called BI clone III; Böhringer (BI) Clone III) VH: EVQLVESGGGLVQLGGSLRLSCAASGFTFSSYYMSWVRQAPGKGLEWVSTIIKSGGYAYYPDSVKDRFTISRDNSKNTLYLQMNSLRAEDTAVYYCVKGGQGAMDYWGQGTTVTVSS VL: EIVLTQSPATLSLSPGERATLSCRASQSIGDYLHWYQQKPGQAPRLLIYYASQSISGIPARFSGSGSGTDFTLTISSLEPEDFAVYYCQQGYSFPYTFGGGTKLEIKR
106% | 103% | 102% | 103% | TPP-30789 (antibody, human IgG1, kappa, V domains shown, prior art, WO 2020/225400; also called BI clone II; Böhringer (BI) Clone II) VH: EVQLVESGGGLVQPGGSLRLSCAASGFPFSSYYMSWVRQAPGKGLEWVSTIIKSGGYAYYPDSVKDRFTISRDNSKNTLYLQMSSLRAEDTAVYYCVRGGQGAMDYWGQGTTVTVSS VL: EIVLTQSPATLSLSPGERATLSCRASQSIGDYLHWYQQKPGQAPRLLIKYASQSISGIPARFSGSGSGTDFTLTITSLEPEDFAVYYCQQGYSFPYTFGGGTKLEIKR
55% | 57% | 55% | 53% | TPP-17755 (antibody, human IgG1, lambda, V domains shown, also called Samsung; Samsung Prior Art F11) VH: EVQLLESGGGLVQTGGSLRLSCAASGFTFSDYAMSWVRQAPGKGLEWVSWIYYDSGSKYYADSVKGRFTISRDNSKNTLYLQMNSLRAEDTAVYYCAKLNGDFDYWGQGTLVTVSS VL: QSVLTQPPSASGTPGQRVTISCSGSSSNIGNNDVSWYQQLPGTAPKLLIYADSHRPSGVPDRFSGSKSGTSASLAISGLRSEDEADYYCGAWDSSLSGYVFGGGTKLTVLG
